Results on 4 molecules are retold here after patent US20200207874A1 (Hoffmann-La Roche, published 2020).

One assay has as its target T1, streptavidin (SA) (UniProt P22629 37-163, limits assumed).
T1 construct: Injected at 250 nM as effector moiety to probe the biotin of the 75mer ss-L-DNA linker
The assay is described as follows: SPR (BIAcore 3000), streptavidin injected over 2C4-FAB'-ss-L-DNA bound to captured huFc chimera HER2 ECD. From the text: The BIAcore assay setup comprised the following (see also FIG. 6): A polyclonal goat anti human IgG-Fc gamma antibody was immobilized on the BIAcore CM5 sensor and serves as a capture system for the huFc chimera HER2 ECD.
The FAB fragments have a calculated molecular weight of 57 kDa, each. […] Streptavidin is the effector moiety.
In general terms: In SPR one partner is held on a chip, and binding of the other changes the refractive index at the surface.

For assay [1], the target named is T2, IGF-1R(1340-1366)[1346-pTyr]amid (phosphotyrosine at 1346; C-terminal amide).
T2 construct: also called pIGF-1R peptide (free in solution); phosphorylated IGF-1R peptide
T2 peptide: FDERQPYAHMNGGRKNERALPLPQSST
The assay is described as follows: SPR (BIAcore 3000), complex on SA sensor, peptide in solution. On the procedure: (§1) A BIAcore 3000 instrument (GE Healthcare) was used with a BIAcore SA sensor mounted into the system at T=25° C. The system was preconditioned at 100 μl/min with 3×1 min injection of 1 M NaCl in 50 mM NaOH and 1 min 10 mM HCl.
(§2) 124 RU amino-PEO-biotin were captured on the reference flow cell 1. […] As a control, buffer was injected instead of the ss-Fabs.
(§3) The dissociation was monitored at 50 μl/min for 5.3 min. The system was regenerated after each concentration step with a 12 sec pulse of 250 mM NaOH and was reloaded with ss-FAB ligand.

In assay [2] the target is T2, IGF-1R(1340-1366)[1346-pTyr]amid. The assay is described as follows: SPR (BIAcore 3000, SA sensor, 25 C): ss-FABs hybridized on the biotinylated T40-Bi 77-mer ss-DNA linker on the surface; peptide as analyte in solution. On the procedure: as §1, §2, §3
For assay [3], the target named is T3, IGF-1R(1340-1366)amid (C-terminal amide).
T3 construct: also called IGF-1R peptide (free in solution); non-phosphorylated IGF-1R peptide
T3 peptide: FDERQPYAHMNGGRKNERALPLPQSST
Described as above. On the procedure:
as §1, §2, §3

Assay [4] concerns the target T2, IGF-1R(1340-1366)[1346-pTyr]amid. The assay can be described thus: SPR (BIAcore 3000, SA sensor, 25 C): ss-FABs hybridized on the biotinylated T0-Bi 37-mer ss-DNA linker on the surface; peptide as analyte in solution. On the procedure: as §1, §2, §3
Assay [5] has as its target T3, IGF-1R(1340-1366)amid. The description is as above. On the procedure: as §1, §2, §3
The target in assay [6] is T2, IGF-1R(1340-1366)[1346-pTyr]amid. The assay is described as follows: SPR (BIAcore 3000, SA sensor, 25 C): single ss-FAB hybridized on the biotinylated T40-Bi 77-mer ss-DNA linker on the surface; peptide as analyte in solution. On the procedure:
as §1, §2, §3

Assay [7] concerns the target T4, INR(1355-1382)[1361-pTyr]amid (human, phosphotyrosine at 1361; C-terminal amide).
T4 construct: also called pINR peptide; phosphorylated insulin receptor peptide (free in solution)
T4 peptide: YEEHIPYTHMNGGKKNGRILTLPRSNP
Described as above. On the procedure:
as §1, §2, §3

The target of assay [8] is T3, IGF-1R(1340-1366)amid. The description is as above. On the procedure:
as §1, §2, §3

In assay [9] the target is T5, IGF-1R(1340-1366); Glu(Bi-PEG-1340]amid (not fully specified; PEG linker with biotin on the glutamic acid at position 1340; C-terminal amide).
T5 construct: also called IGF-1R peptide (biotinylated, non-phosphorylated)
T5 peptide: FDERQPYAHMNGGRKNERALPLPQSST
The assay can be described thus: SPR (BIAcore 2000), biotinylated peptide on SA sensor, 100 nM analyte.

Assay [10] concerns the target T6, IGF-1R(1340-1366)[1346-pTyr; Glu(Bi-PEG-1340]amid (not fully specified; phosphotyrosine at 1346; PEG linker with biotin on the glutamic acid at position 1340; C-terminal amide).
T6 construct: also called pIGF-1R peptide (biotinylated); phosphorylated IGF-1R peptide
T6 peptide: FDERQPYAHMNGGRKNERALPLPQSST
Described as above.

Assay [11] deals with T2, IGF-1R(1340-1366)[1346-pTyr]amid. The assay can be described thus: SPR (BIAcore 3000, SA sensor, 25 C): single ss-FAB hybridized on the biotinylated T0-Bi 37-mer ss-DNA linker on the surface; peptide as analyte in solution. On the procedure: as §1, §2, §3
Assay [12] has as its target T3, IGF-1R(1340-1366)amid. The assay is described as above. On the procedure: as §1, §2, §3
Assay [13] has as its target T7, hInsR(1355-1382)[1361-pTyr; Glu(Bi-PEG-1355]amid (human, not fully specified; phosphotyrosine at 1361; PEG linker with biotin on the glutamic acid at position 1355; C-terminal amide).
T7 construct: also called pIR peptide; IR (phosphorylated insulin receptor) peptide (biotinylated)
T7 peptide: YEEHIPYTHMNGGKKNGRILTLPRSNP
The assay is described as follows: SPR (BIAcore 2000), biotinylated peptide on SA sensor.

“And” between values parts separate entries of the source, which are not always exact repeats. Equal entries are not always repeated.

T1 sequence (P22629 37-163 limits assumed): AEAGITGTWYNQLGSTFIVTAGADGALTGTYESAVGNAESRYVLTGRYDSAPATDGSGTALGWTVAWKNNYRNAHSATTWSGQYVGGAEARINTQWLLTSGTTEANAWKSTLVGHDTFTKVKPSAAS

B1: anti-HER2 antibody 2C4-FAB′-ss-L-DNA (Fab, V domains shown)
VH: EVQLVESGGGLVQPGGSLRLSCAASGFTFTDYTMDWVRQAPGKGLEWVADVNPNSGGSIYNQRFKGRFTLSVDRSKNTLYLQMNSLRAEDTAVYYCARNLGPSFYFDYWGQGTLVTVSS
VL: DIQMTQSPSSLSASVGDRVTITCKASQDVSIGVAWYQQKPGKAPKLLIYSASYRYTGVPSRFSGSGSGTDFTLTISSLQPEDFATYYCQQYYIYPYTFGQGTKVEIKQ
modifications: cysteine of the FAB′ hinge region linked via maleimide to fluorescein-labeled ss-L-DNA oligonucleotide
notes: FAB′ of 2C4 (Pertuzumab); also called 2C4-ss-L-DNA; 2C4-75mer
For the molecule B1, in the assay with streptavidin (SA), the binding result is given as “no binding (tested: 250 nM)”.

B2: T40 dual binding agent: ss-FAB 8.1.2 and ss-FAB 1.4.168 on the biotinylated T40-Bi 77-mer ss-DNA linker (linker 10) (bispecific antibody, V domains shown)
VH 1: EVQLQQSGPALVKPGASVKMSCKASGFTFTSYVIHWVKQKPGQGLEWIGYLNPYNDNTKYNEKFKGKATLTSDRSSSTVYMEFSSLTSEDSAVYFCARRGIYAYDHYFDYWGQGTSLTVSS
VL 1: QIVLTQSPAIMSASPGEKVTLTCSASSSVNYMYWYQQKPGSSPRLLIYDTSNLASGVPVRFSGSGSVTSYSLTISRMEAEDAATYYCQQWSTYPLTFGAGTKLELK
VH 2: QCDVKLVESGGGLVKPGGSLKLSCAASGFTFSDYPMSWVRQTPEKRLEWVATITTGGTYTYYPDSIKGRFTISRDNAKNTLYLQMGSLQSEDAAMYYCTRVKTDLWWGLAYWGQGTLVTVSA
VL 2: QLVLTQSSSASFSLGASAKLTCTLSSQHSTYTIEWYQQQPLKPPKYVMELKKDGSHTTGDGIPDRFSGSSSGADRYLSISNIQPEDESIYICGVGDTIKEQFVYVFGGGTKVTVLG
modifications: FAB′ hinge cysteine linked to ss-DNA
notes: Assembled on the SA sensor surface; also called T40-bi complex
As for B2, the equilibrium dissociation constant (Kd) (as a rule, the equilibrium constant for the complex coming apart) in assay [1] is 0.01 nM; in assay [2], 0.0125 nM; with IGF-1R(1340-1366)amid [3], 0.973 nM and 1 nM. In the assay with IGF-1R(1340-1366)amid [3], this molecule registered a t1/2 diss of 4.3 min.

B3: T0 dual binding agent: ss-FAB 8.1.2 and ss-FAB 1.4.168 on the biotinylated T0-Bi 37-mer ss-DNA linker (linker 17) (bispecific antibody, V domains shown)
VH 1: B2 VH 1
VL 1: B2 VL 1
VH 2: B2 VH 2
VL 2: B2 VL 2
modifications: FAB′ hinge cysteine linked to ss-DNA
B3: the dissociation constant (Kd) in assay [4] was 0.0344 nM; with IGF-1R(1340-1366)amid [5], 1.2 nM and 1 nM; in assay [1] it was 0.03 nM. Further, the t1/2 diss in the assay with IGF-1R(1340-1366)amid [5] is 5 min.

B4: ss-FAB′ 1.4.168 (Fab, V domains shown)
VH: DVKLVESGGGLVKPGGSLKLSCAASGFTFSDYPMSWVRQTPEKRLEWVATITTGGTYTYYPDSIKGRFTISRDNAKNTLYLQMGSLQSEDAAMYYCTRVKTDLWWGLAYWGQGTLVTVSA
VL: B2 VL 2
modifications: cysteine of the FAB′ hinge region linked to 17mer ss-DNA comprising SEQ ID NO: 05 with fluorescein
notes: FAB′ from pepsin cleavage of murine mAb 1.4.168; also called ss-FAB 1.004.168; fluorescein-ss-FAB′ 1.4.168
Turning to B4, the Kd in assay [6] was 2.14 nM and 2 nM; with IGF-1R(1340-1366)amid [8], 1.1 nM and 1 nM; in assay [11], 2.59 nM and 3 nM; in the assay with IGF-1R(1340-1366)amid [12], 1.35 nM and 1 nM. The koff (usually the rate constant with which the complex falls apart) in assay [6] came to 0.00419 s⁻¹; with IGF-1R(1340-1366)amid [8] it was 0.00362 s⁻¹; in assay [11], 0.00291 s⁻¹; in the assay with IGF-1R(1340-1366)amid [12], 0.00326 s⁻¹. Besides, the kon (commonly the second-order rate constant of association) in [6] is 1.96e+06 M⁻¹ s⁻¹; in the assay with IGF-1R(1340-1366)amid [8], 3.3e+06 M⁻¹ s⁻¹; in assay [11] it was 1.12e+06 M⁻¹ s⁻¹; with IGF-1R(1340-1366)amid [12], 2.41e+06 M⁻¹ s⁻¹. The binding result in [7] is “no binding (tested: 300 nM (highest peptide step))”; in assay [13], “no binding (tested: 100 nM)”. In addition, the t1/2 diss with IGF-1R(1340-1366)amid [8] was 3 min; in assay [11] it was 4 min; with IGF-1R(1340-1366)amid [12], 4 min. The T1/2 dis in assay [9] and in assay [10] was 3 min throughout.
